From the supplement of paper PMC10567573

Experiment: protein stability index of a GFP-peptide fusion (GPS, HEK-293T) (PSI 1-6); higher = more stable
Settings: c terminus: native
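Also: lentivirally expressed fusion library, cells FACS-sorted into six equal-sized GFP/DsRed ratio bins, PSI computed from sequencing read fractions per bin weighted by bin number.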

B1: PSMB5 addE (peptide)
chain: DGWIRVSSDNVADLHEKYSGSTPE
protein stability index (parent: NP_002788.1): 4

B2: SNF8 addE (peptide)
chain: LPALFTDLYSQEITAEEAREALPE
protein stability index (parent: NP_009172.2): 5.12

B3: POLD2 addE (peptide)
chain: CQPISFSGFGAEDDDLGGLGLGPE
protein stability index (parent: NP_006221.1): 2.57

B4: BEX2 addE (peptide)
chain: HSLRAVSTDPPHHDHHDEFCLMPE
protein stability index (parent: NP_116010.1): 4.74

B5: TRPA1 addE (peptide)
chain: EQRNSRWNTVLRAVKAKTHHLEPE
protein stability index (parent: NP_015628.1): 4.66
